In patent US6511816B1, “DNA gyrase-inhibiting proteins” (priority 1996, dated 2003):

How the values were obtained:
[1] = biological target: Escherichia coli DNA gyrase (subunit A and subunit B) (Escherichia coli) (UniProt P0AES4); assay: cell-based or functional assay
[2] = system: E. coli GI724 (pCA17) strain; assay: Microscopic observation of strains expressing a large amount of DGI; format: cell-based, Escherichia coli; conditions: tryptophan-induced expression from pCA17
[3] = biological target: Escherichia coli DNA gyrase (subunit A and subunit B) (Escherichia coli, UniProt P0AES4+P0AES6)
Experimental: Using the purified DGI obtained in Example 4 above, DGI activity, i.e. the inhibiting activity against DNA gyrase activity (supercoiling activity), was measured. Each 5 μl of DNA gyrase subunit A (1U) and subunit B (1U) were each added to a reaction mixture for activity measurement (20 mM Tris-HCl (pH7.5), 20 mM KCl, 4 mM MgCl2, 4 mM spermidine, 1.5 mM ATP, 1 mM DTT, 30 μg/ml t-RNA, 15 μg/ml BSA and 0.1 μg relaxed pBR322 DNA), and DGI (protein concentration 25, 12.5, 6.25, 3.13, 1.56, 0.78 or 0.39 μg/ml) was added thereto for the reaction for 1 hour at 37° C. After stopping the reaction by addition of 3 μl of proteinase K (1 mg/ml) while keeping the temperature at 37° C. for 30 minutes, the reaction mixture was subjected to electrophoresis with 0.8% agarose gel, dyed with a 0.5 μg/ml solution of ethidium bromide and photographed under radiation of the ultraviolet rays. The amount of super-coiled DNA was measured with a densitometer (Shimadzu-wavelength flying spot scanner CS-9000, available from Shimadzu Seisakusho Co.). The presence or absence of DNA gyrase-inhibiting activity was assayed by comparing the supercoiled DNA amounts obtained when DGI protein was added, with those obtained when no DGI protein was added.
0.5 μg of pBR322 DNA (the supercoiled type, available from Takara Shuzo Co.) and 1 μl of topoisomerase I (available from Takara Shuzo Co.)(6 U/μl) were added to 20 μl of a reaction liquid (35 mM Tris-HCl (pH 8.0), 72 mM KCl, 5 mM MgCl2, 5 mM DTT, 5 mM spermidine and 0.01% bovine serum albumin) and reacted for 2 hours at 37° C. to prepare relaxed pBR322 DNA. […] As for the enzyme activity, the enzyme amount necessary to convert 50% of the amount of the relaxed plasmid DNA into the supercoiled DNA was expressed as one unit (U).

[4] = system: E. coli GI724 strain; assay: Growth of antisense RNA-expressing strain with tryptophan induction; format: cell-based, Escherichia coli; conditions: for turbidity OD600 / number of living cells: tryptophan added
Experimental: An antisense expression vector was prepared by inserting a fragment containing the translation region of dgi gene (a fragment corresponding to the 255th-728th bases of Sequence ID NO:6) into the downstream of tryptophan (trp) promoter of vector plasmid pLEX (available from Invitrogen Co.).
The vector was introduced into E. coli GI724 strain. The antisense RNA-expressing strain thus obtained was cultured under the condition of with or without adding tryptophan, and the change with the lapse of time in the number of living cells and turbidity (OD600) was measured. When expression induction by adding tryptophan was not carried out, the number of living cells and turbidity after 24 hours were increased up to 1×10^9 cfu/ml and 1.0, respectively. […] It has been reported that such abnormality in morphology was also observed when E. coli was treated with a new quinolone gyrase inhibitor (Takeshi Nishino et al., Chemotherapy, vol. 41(s-5), pp. 50-66, 1993). From the above result, it is considered that in E. coli wherein expression of dgi antisense RNA is induced, expression of dgi gene is repressed and the normal growth of bacteria is inhibited. In other words, a medical agent which inhibits the expression of dgi gene is useful as an antimicrobial agent.

Chain of Escherichia coli DNA gyrase (subunit A and subunit B) (P0AES4 whole entry, one chain of several): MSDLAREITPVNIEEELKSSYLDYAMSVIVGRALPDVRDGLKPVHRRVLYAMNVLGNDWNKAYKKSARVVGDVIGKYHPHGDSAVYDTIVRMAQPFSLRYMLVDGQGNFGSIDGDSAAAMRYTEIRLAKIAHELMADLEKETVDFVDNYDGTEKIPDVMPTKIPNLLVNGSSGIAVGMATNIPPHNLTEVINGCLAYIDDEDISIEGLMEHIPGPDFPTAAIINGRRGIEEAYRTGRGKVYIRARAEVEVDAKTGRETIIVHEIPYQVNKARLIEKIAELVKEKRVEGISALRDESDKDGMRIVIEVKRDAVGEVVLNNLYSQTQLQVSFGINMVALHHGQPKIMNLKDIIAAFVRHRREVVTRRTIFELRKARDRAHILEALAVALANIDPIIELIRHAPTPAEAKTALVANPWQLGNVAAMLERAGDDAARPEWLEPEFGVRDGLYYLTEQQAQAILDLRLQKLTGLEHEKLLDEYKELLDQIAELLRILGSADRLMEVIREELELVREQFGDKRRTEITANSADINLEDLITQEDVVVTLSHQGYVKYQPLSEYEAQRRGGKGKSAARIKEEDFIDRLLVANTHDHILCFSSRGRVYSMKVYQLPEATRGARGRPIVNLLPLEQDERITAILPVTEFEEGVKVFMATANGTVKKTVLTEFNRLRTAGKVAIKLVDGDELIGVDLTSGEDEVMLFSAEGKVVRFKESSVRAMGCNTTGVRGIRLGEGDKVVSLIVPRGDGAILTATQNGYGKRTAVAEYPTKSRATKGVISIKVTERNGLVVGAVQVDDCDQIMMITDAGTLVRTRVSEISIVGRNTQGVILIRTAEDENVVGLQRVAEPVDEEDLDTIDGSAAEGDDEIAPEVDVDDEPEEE
Chain of Escherichia coli DNA gyrase (subunit A and subunit B) (Escherichia coli) (P0AES4 2-875 limits assumed): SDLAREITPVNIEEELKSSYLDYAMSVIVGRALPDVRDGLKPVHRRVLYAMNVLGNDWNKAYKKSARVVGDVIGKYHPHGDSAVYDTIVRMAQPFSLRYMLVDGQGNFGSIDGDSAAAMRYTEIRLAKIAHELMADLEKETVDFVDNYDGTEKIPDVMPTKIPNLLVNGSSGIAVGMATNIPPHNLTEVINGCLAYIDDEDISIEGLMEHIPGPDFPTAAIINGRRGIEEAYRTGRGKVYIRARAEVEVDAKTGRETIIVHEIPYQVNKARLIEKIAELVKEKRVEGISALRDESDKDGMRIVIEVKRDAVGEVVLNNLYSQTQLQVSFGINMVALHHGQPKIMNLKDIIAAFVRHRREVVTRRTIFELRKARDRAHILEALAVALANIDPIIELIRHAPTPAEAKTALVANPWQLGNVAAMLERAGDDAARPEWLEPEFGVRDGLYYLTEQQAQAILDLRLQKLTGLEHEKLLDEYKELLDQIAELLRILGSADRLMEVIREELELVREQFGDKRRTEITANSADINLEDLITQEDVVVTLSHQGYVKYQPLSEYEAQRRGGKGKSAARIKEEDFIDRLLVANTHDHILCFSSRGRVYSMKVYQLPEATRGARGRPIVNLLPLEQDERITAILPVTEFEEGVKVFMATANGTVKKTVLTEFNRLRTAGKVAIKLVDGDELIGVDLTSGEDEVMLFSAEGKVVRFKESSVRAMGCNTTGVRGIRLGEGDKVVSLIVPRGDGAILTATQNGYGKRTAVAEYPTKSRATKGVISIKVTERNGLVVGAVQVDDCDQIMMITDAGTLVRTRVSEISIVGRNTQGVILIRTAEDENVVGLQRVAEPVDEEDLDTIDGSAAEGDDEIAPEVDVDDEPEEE

Molecule: DNA gyrase-inhibiting protein (DGI) derived from Escherichia coli (from UniProt B2TYH1 1-157)
- supercoiling activity of DNA gyrase (relaxed pBR322 DNA, agarose gel) [1]: 8 µg/ml
- supercoiling activity of DNA gyrase (relaxed pBR322 DNA, agarose gel, densitometry) [1]: > 6 µg/ml

B1: DGI: about 18 kDa Escherichia coli protein inhibiting DNA gyrase supercoiling activity, Sequence ID NO:7 (protein)
chain: MNYEIKQEEKRTVAGFHLVGPWEQTVKKGFEQLMMWVDSKNIVPKEWVAVYYDNPDETPAEKLRCDTVVTVPGYFTLPENSEGVILTEITGGQYAVAVARVVGDDFAKPWYQFFNSLLQDSAYEMLPKPCFEVYLNNGAEDGYWDIEMYVAVQPKHH
modifications: Escherichia coli strain KL16
- morphology of strains expressing a large amount of DGI [2]: lank and elongated
- concentration perfectly inhibiting the supercoiling activity of DNA gyrase ([3]; purified DGI isolated from Fraction No. 32 by Sephadex G-75, relaxed pBR322 DNA, subunit A 1 U, subunit B 1 U): 8 µg/mL
- concentration completely inhibiting the supercoiling activity of DNA gyrase ([3]; recombinant purified DGI of Example 4, 1 hour at 37° C., tested 25 to 0.39 μg/ml): ≥ 6 µg/mL
- conversion to supercoiled DNA at concentration lower than 6 μg/ml ([3]; recombinant purified DGI of Example 4, below 6 μg/ml): ended in an incomplete state

B2: dgi gene antisense RNA: antisense RNA expressed from pLEX carrying the dgi fragment (255th-728th bases of Sequence ID NO:6) (nucleic acid)
antisense: ATGAACTACGAGATTAAGCAGGAAGAGAAACGTACCGTTGCAGGTTTCCATCTCGTTGGCCCGTGGGAACAGACGGTAAAGAAAGGCTTTGAGCAGTTGATGATGTGGGTAGATAGCAAAAATATTGTGCCGAAGGAGTGGGTTGCTGTCTATTACGACAATCCAGATGAAACACCCGCCGAAAAATTACGCTGCGACACCGTCGTGACGGTGCCGGGTTACTTTACGCTTCCCGAAAACAGTGAGGGCGTCATTCTGACAGAAATTACAGGTGGTCAGTATGCGGTGGCGGTAGCTCGTGTAGTCGGTGATGATTTTGCTAAACCCTGGTATCAGTTCTTTAATAGTCTCTTGCAGGACAGTGCTTATGAAATGTTACCAAAGCCCTGCTTCGAGGTTTATTTGAACAATGGCGCGGAAGATGGGTACTGGGATATCGAAATGTATGTTGCGGTGCAGCCAAAACATCACTAA
modifications: antisense orientation RNA; Escherichia coli strain KL16
- morphology of bacteria ([4]; antisense RNA-expressing strain): elongation of the bacteria was observed
- turbidity OD600 ([4]; 8 hours after the addition): 0.4
- number of living cells ([4]; 8 hours after the addition (from 4×10^7 cfu/ml)): 1×10^8 cfu/ml
- number of living cells ([4]; after 24 hours): 5×10^6 cfu/ml
- turbidity OD600 ([4]; after 24 hours): ~0.5
